From the supplement of paper PMC9112550, “Optimization of the antimicrobial peptide Bac7 by deep mutational scanning” (BMC Biology, 2022)

system: Escherichia coli TOP10; test: shrunken log2 fold change of peptide-encoding DNA abundance (4.5 h post-induction vs induction); higher = less antimicrobial activity (less host growth inhibition); conditions: time post-induction: 4.5 h; library: site-saturation at positions 5, 18, 19, 20
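Further: peptides expressed intracellularly from a pBAD plasmid library in pooled LB shake-flask culture, induced with 0.3% L-arabinose, DNA abundance read by NGS, three biological replicates, DESeq2 with apeglm shrinkage.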

| Sequence | shrunken log2 fold change |
| --- | --- |
| RRIRSRPPRLPRPRPRPMSQPRP | -0.0303 |
| RRIRMRPPRLPRPRPRPVKMPRP | -0.124 |
| RRIRTRPPRLPRPRPRPFGMPRP | 0.00903 |
| RRIRGRPPRLPRPRPRPRYYPRP | -0.0701 |
| RRIRMRPPRLPRPRPRPTCKPRP | 2.25 |
| RRIRMRPPRLPRPRPRPQGMPRP | 0.0363 |
| RRIRSRPPRLPRPRPRPWGQPRP | 0.0926 |
| RRIRCRPPRLPRPRPRPHHHPRP | -0.815 |
| RRIRQRPPRLPRPRPRPRHPPRP | 0.283 |
| RRIRNRPPRLPRPRPRPKFVPRP | -0.0126 |
| RRIRCRPPRLPRPRPRPTKKPRP | -0.000922 |
| RRIRRRPPRLPRPRPRPMKSPRP | 0.304 |
| RRIRCRPPRLPRPRPRPNTGPRP | -0.657 |
| RRIRTRPPRLPRPRPRPHDVPRP | 0.00489 |
| RRIRTRPPRLPRPRPRPPGSPRP | 0.00863 |
| RRIRYRPPRLPRPRPRPDFNPRP | -1.62 |
| RRIRCRPPRLPRPRPRPLQTPRP | 0.443 |
| RRIRNRPPRLPRPRPRPLNGPRP | -0.0206 |
| RRIRLRPPRLPRPRPRPEDWPRP | 0.544 |
| RRIRPRPPRLPRPRPRPSVKPRP | -0.277 |
| RRIRARPPRLPRPRPRPVAGPRP | 0.35 |
| RRIRDRPPRLPRPRPRPESCPRP | 0.629 |
| RRIRWRPPRLPRPRPRPTETPRP | 0.0028 |
| RRIRTRPPRLPRPRPRPPYGPRP | -0.195 |
| RRIRTRPPRLPRPRPRPAFCPRP | 0.113 |

| Sequence | shrunken log2 fold change |
| --- | --- |
| RRIRARPPRLPRPRPRPKTGPRP | 0.427 |
| RRIRGRPPRLPRPRPRPDKAPRP | -0.00124 |
| RRIRMRPPRLPRPRPRPDSSPRP | 0.0874 |
| RRIRERPPRLPRPRPRPCHCPRP | -0.344 |
| RRIRGRPPRLPRPRPRPFHNPRP | -0.388 |
| RRIRKRPPRLPRPRPRPTCMPRP | 0.576 |
| RRIRWRPPRLPRPRPRPGPLPRP | 0.0252 |
| RRIRVRPPRLPRPRPRPGAIPRP | 0.0707 |
| RRIRGRPPRLPRPRPRPIMEPRP | 0.229 |
| RRIRTRPPRLPRPRPRPTMTPRP | -0.0413 |
| RRIRCRPPRLPRPRPRPYWRPRP | -0.0756 |
| RRIRIRPPRLPRPRPRPLLAPRP | 0.185 |
| RRIRERPPRLPRPRPRPQFQPRP | -0.0426 |
| RRIRHRPPRLPRPRPRPWGSPRP | -0.356 |
| RRIRGRPPRLPRPRPRPTYDPRP | 0.361 |
| RRIRCRPPRLPRPRPRPRHMPRP | -0.185 |
| RRIRYRPPRLPRPRPRPYTDPRP | -0.396 |
| RRIRPRPPRLPRPRPRPDNPPRP | -0.00669 |
| RRIRDRPPRLPRPRPRPKYRPRP | -0.0164 |
| RRIRSRPPRLPRPRPRPDQFPRP | -0.167 |
| RRIRYRPPRLPRPRPRPVVTPRP | -0.351 |
| RRIRARPPRLPRPRPRPQADPRP | -0.119 |
| RRIRNRPPRLPRPRPRPIPNPRP | -0.428 |
| RRIRARPPRLPRPRPRPFLIPRP | -0.367 |
| RRIRFRPPRLPRPRPRPYWQPRP | -0.9 |

| Sequence | shrunken log2 fold change |
| --- | --- |
| RRIRHRPPRLPRPRPRPDCVPRP | -0.383 |
| RRIRTRPPRLPRPRPRPECTPRP | 0.0491 |
| RRIRRRPPRLPRPRPRPYWHPRP | -0.484 |
| RRIRYRPPRLPRPRPRPGQSPRP | -0.108 |
| RRIRMRPPRLPRPRPRPYIQPRP | -1.05 |
| RRIRYRPPRLPRPRPRPMLAPRP | -0.269 |
| RRIRFRPPRLPRPRPRPWPAPRP | -0.0371 |
| RRIRSRPPRLPRPRPRPHQIPRP | 0.0975 |
| RRIRARPPRLPRPRPRPPCIPRP | -0.111 |
| RRIRPRPPRLPRPRPRPCNHPRP | -0.227 |
| RRIRRRPPRLPRPRPRPWAKPRP | 0.0786 |
| RRIRCRPPRLPRPRPRPDARPRP | -0.0562 |
| RRIRARPPRLPRPRPRPSCKPRP | -0.291 |
| RRIRLRPPRLPRPRPRPLVHPRP | -0.0413 |
| RRIRFRPPRLPRPRPRPRWHPRP | 0.059 |
| RRIRDRPPRLPRPRPRPWITPRP | -0.123 |
| RRIRGRPPRLPRPRPRPYRTPRP | -0.108 |
| RRIRQRPPRLPRPRPRPFKLPRP | -0.152 |
| RRIRCRPPRLPRPRPRPIFIPRP | -0.339 |
| RRIRFRPPRLPRPRPRPADVPRP | 0.258 |
| RRIRVRPPRLPRPRPRPVMNPRP | -0.19 |
| RRIRFRPPRLPRPRPRPGELPRP | 0.245 |
| RRIRRRPPRLPRPRPRPVKFPRP | 0.0517 |
| RRIRQRPPRLPRPRPRPFILPRP | -0.635 |
| RRIRRRPPRLPRPRPRPMCLPRP | 0.0511 |

| Sequence | shrunken log2 fold change |
| --- | --- |
| RRIRARPPRLPRPRPRPFWWPRP | 0.923 |
| RRIRMRPPRLPRPRPRPDPRPRP | 0.104 |
| RRIRHRPPRLPRPRPRPESSPRP | 0.087 |
| RRIRYRPPRLPRPRPRPHYNPRP | -1.18 |
| RRIRHRPPRLPRPRPRPSQPPRP | -0.184 |
| RRIRWRPPRLPRPRPRPCSSPRP | -0.259 |
| RRIRFRPPRLPRPRPRPCWHPRP | -0.259 |
| RRIRKRPPRLPRPRPRPQMSPRP | -0.164 |
| RRIRIRPPRLPRPRPRPWGGPRP | 0.297 |
| RRIRDRPPRLPRPRPRPRTTPRP | 0.0893 |
| RRIRDRPPRLPRPRPRPSIDPRP | -0.145 |
| RRIRPRPPRLPRPRPRPMYGPRP | -0.182 |
| RRIRIRPPRLPRPRPRPLWAPRP | -0.174 |
| RRIRPRPPRLPRPRPRPDQCPRP | 0.139 |
| RRIRNRPPRLPRPRPRPYCVPRP | -0.172 |
| RRIRHRPPRLPRPRPRPTWCPRP | 0.582 |
| RRIRCRPPRLPRPRPRPVIFPRP | -0.408 |
| RRIRKRPPRLPRPRPRPEGGPRP | 0.543 |
| RRIRSRPPRLPRPRPRPQTMPRP | -0.35 |
| RRIRIRPPRLPRPRPRPEFFPRP | 0.179 |
| RRIRDRPPRLPRPRPRPLAGPRP | 0.121 |
| RRIRDRPPRLPRPRPRPADTPRP | -0.379 |
| RRIRERPPRLPRPRPRPVCSPRP | -0.239 |
| RRIRPRPPRLPRPRPRPFIPPRP | -0.266 |
| RRIRQRPPRLPRPRPRPPEHPRP | 0.0412 |

| Sequence | shrunken log2 fold change |
| --- | --- |
| RRIRLRPPRLPRPRPRPHGSPRP | -0.0692 |
| RRIRARPPRLPRPRPRPMKVPRP | -0.0785 |
| RRIRARPPRLPRPRPRPSPAPRP | 0.616 |
| RRIRGRPPRLPRPRPRPVRWPRP | 0.965 |
| RRIRWRPPRLPRPRPRPSRCPRP | 0.0613 |
| RRIRQRPPRLPRPRPRPARDPRP | 0.0373 |
| RRIRERPPRLPRPRPRPGWVPRP | 0.381 |
| RRIRCRPPRLPRPRPRPTGCPRP | -0.0358 |
| RRIRHRPPRLPRPRPRPYTDPRP | -0.000921 |
| RRIRTRPPRLPRPRPRPSYKPRP | -0.594 |
| RRIRGRPPRLPRPRPRPGRLPRP | 0.706 |
| RRIRDRPPRLPRPRPRPLDTPRP | 0.0803 |
| RRIRIRPPRLPRPRPRPGEEPRP | -0.0165 |
| RRIRCRPPRLPRPRPRPKHSPRP | -0.401 |
| RRIRVRPPRLPRPRPRPWFGPRP | 0.0293 |
| RRIRHRPPRLPRPRPRPTILPRP | -0.194 |
| RRIRDRPPRLPRPRPRPDELPRP | 0.414 |
| RRIRVRPPRLPRPRPRPLLDPRP | 0.157 |
| RRIRGRPPRLPRPRPRPNQAPRP | -0.0774 |
| RRIRTRPPRLPRPRPRPVSVPRP | -0.0287 |
| RRIRARPPRLPRPRPRPTGRPRP | 0.215 |
| RRIRWRPPRLPRPRPRPLDVPRP | 0.00856 |
| RRIRMRPPRLPRPRPRPKRPPRP | 0.85 |
| RRIRIRPPRLPRPRPRPWTNPRP | -0.00152 |
| RRIRERPPRLPRPRPRPTIVPRP | 0.03 |

| Sequence | shrunken log2 fold change |
| --- | --- |
| RRIRDRPPRLPRPRPRPSNPPRP | -0.281 |
| RRIRKRPPRLPRPRPRPICNPRP | 0.102 |
| RRIRWRPPRLPRPRPRPCMAPRP | 0.312 |
| RRIRERPPRLPRPRPRPILEPRP | -0.0533 |
| RRIRCRPPRLPRPRPRPDSLPRP | -0.0818 |
| RRIRHRPPRLPRPRPRPGQDPRP | 0.0217 |
| RRIRIRPPRLPRPRPRPQLFPRP | 0.667 |
| RRIRTRPPRLPRPRPRPITYPRP | -0.0511 |
| RRIRCRPPRLPRPRPRPSDTPRP | -0.134 |
| RRIRFRPPRLPRPRPRPMGYPRP | -0.226 |
| RRIRTRPPRLPRPRPRPGNNPRP | -0.14 |
| RRIRARPPRLPRPRPRPHFMPRP | 0.787 |
| RRIRQRPPRLPRPRPRPIQLPRP | -0.333 |
| RRIRMRPPRLPRPRPRPSVKPRP | 0.185 |
| RRIRRRPPRLPRPRPRPMFKPRP | 0.168 |
| RRIRVRPPRLPRPRPRPWIFPRP | -0.389 |
| RRIRCRPPRLPRPRPRPHFDPRP | 0.0458 |
| RRIRQRPPRLPRPRPRPKTKPRP | -0.254 |
| RRIRSRPPRLPRPRPRPSVEPRP | -0.0505 |
| RRIRSRPPRLPRPRPRPYLMPRP | -0.566 |
| RRIRPRPPRLPRPRPRPSKLPRP | -0.224 |
| RRIRGRPPRLPRPRPRPSSNPRP | 0.369 |
| RRIRYRPPRLPRPRPRPWPGPRP | -0.15 |
| RRIRYRPPRLPRPRPRPMKTPRP | -0.0156 |
| RRIRGRPPRLPRPRPRPQWDPRP | 0.534 |
